Assay results as given in patent US12006513B2, “Methods for the long-term expansion of granulocyte-macrophage progenitors and applications thereof” (University of Southern California, priority 2018, dated 2024).

What was measured:
[1] = system: bone marrow cells isolated from adult C57BL/6 mice; assay: Small molecule library screens on bone marrow cells in serum free N2B27 medium; type: cell-based, mouse; conditions: second screening, together with GDC0879
[2] = system: mouse GMP; assay: Granulocyte differentiation of ex vivo expanded GMPs; type: cell-based; conditions: RPMI 1640+10% FBS, 20 ng/mL GCSF, 72 h
Protocol: Long-term ex vivo expanded GMPs can differentiate into functional and mature granulocytes. Granulocyte colony-stimulating factor (G-CSF) is a known hematopoietic growth factor that regulates neutrophils production in the bone marrow. G-CSF was used to induce mouse GMP differentiation towards the neutrophil lineage. After culturing for 3 weeks in E7^+SCF/GDC/CHIR conditions, GMPs were re-plated in RPMI 1640+10% FBS medium and stimulated with 20 ng/mL of GCSF. Seventy-two hours after stimulation with GCSF, GMPs differentiated into cells that morphologically resembled granulocytes (e.g., see FIG. 3F). To further verify the identity of these cells, the cells were harvested and stained with Gr1 and CD115 antibodies and analyzed by flow cytometer. Granulocytes are Gr1^+ and CD115^−.

[3] = system: ex vivo expanded GMPs; assay: Macrophage differentiation of ex vivo expanded GMPs; type: cell-based, mouse; conditions: RPMI 1640+10% FBS+20 ng/mL MCSF, 7 days
Protocol: FIG. 3A-I presents results of macrophages differentiation from GMPs. […] P7 GMPs were cultured in RPMI 1640+10% FBS+20 ng/mL MCSF for 7 days. Mature macrophages were re-plated, fixed and stained for CD11b and F4/80. (B) Provides the results of an in vitro functional test of the differentiated macrophages. 1×10^5 GMPs (P7) or 1×10^6 whole BM cells were seeded into 1 well of 6-well plate in RPMI 1640+10% FBS+20 ng/mL MCSF. 7 days later, mature bone marrow-derived macrophages (BMM) and GMP-derived macrophages (GMPM) were trypsinized, counted and reseeded into 48-well plate at 1×10^5 cells per well in RPMI 1640+10% FBS. After overnight, cells were stimulated with 500 ng/mL LPS for 6 or 24 h. The inflammatory cytokines in the supernatant were measured by ELISA. (C) Provides images of another in vitro functional test of the differentiated macrophages. Green: E. coli-GFP. Red: tdTomato^+ macrophages. Top image, GFP labeled E. coli were co-cultured with tdTomato^+ GMPs-derived macrophages. Consecutive pictures were taken each 30′ under Zeiss LSM-780 confocal microscope for 1 h. […] (E), cells were harvested and FITC positive cells were analyzed by using BD Arial flow cytometry. […]
Long-term ex vivo expanded GMPs can differentiate into functional and mature macrophages. […] After 6 or 24 h, the supernatant was harvested and the concentrations of inflammatory cytokines TNFα, IL6 and IL10 by ELISA were measured.

## O=C(NCCCn1ccnc1)c1cc(-c2ccco2)on1 [SKL2001]
[1]
  expansion of the uniform round-shaped cells: acted synergistically with GDC0879 to promote the expansion

B1: GCSF: granulocyte colony-stimulating factor, used at 20 ng/mL for granulocyte differentiation (protein, UniProt P09919 31-207, looked up)
Granulocyte …: TPLGPASSLPQSFLLKCLEQVRKIQGDGAALQEKLVSECATYKLCHPEELVLLGHSLGIPWAPLSSCPSQALQLAGCLSQLHSGLFLYQGLLQALEGISPELGPTLDTLQLDVADFATTIWQQMEELGMAPALQPTQGAMPAFASAFQRRAGGVLVASHLQSFLEVSYRVLRHLAQP
[2]
  cells derived from GMPs that were Gr1+ CD115−: more than 80%

B2: MCSF: macrophage colony-stimulating factor, used at 20 ng/mL for macrophage differentiation (protein, UniProt P09603 33-554, looked up)
Macrophage colony-stimulating …: EEVSEYCSHMIGSGHLQSLQRLIDSQMETSCQITFEFVDQEQLKDPVCYLKKAFLLVQDIMEDTMRFRDNTPNAIAIVQLQELSLRLKSCFTKDYEEHDKACVRTFYETPLQLLEKVKNVFNETKNLLDKDWNIFSKNCNNSFAECSSQDVVTKPDCNCLYPKAIPSSDPASVSPHQPLAPSMAPVAGLTWEDSEGTEGSSLLPGEQPLHTVDPGSAKQRPPRSTCQSFEPPETPVVKDSTIGGSPQPRPSVGAFNPGMEDILDSAMGTNWVPEEASGEASEIPVPQGTELSPSRPGGGSMQTEPARPSNFLSASSPLPASAKGQQPADVTGTALPRVGPVRPTGQDWNHTPQKTDHPSALLRDPPEPGSPRISSLRPQGLSNPSTLSAQPQLSRSHSSGSVLPLGELEGRRSTRDRRSPAEPEGGPASEGAARPLPRFNSVPLTDTGHERQSEGSFSPQLQESVFHLLVPSVILVLLAVGGLLFYRWRRRSHQEPQRADSPLEQPEGSPLTQDDRQVELPV
[3]
  cells expressing macrophage markers CD11b and F4/80: almost all the cells expressed both CD11b and F4/80
